Laboratory results: doi:10.1101/244665 (bioRxiv, 2019)
Where a chain is given by its changes, count along the chain named. In names and notes the source's numbering stands.

B1: PfA-M17(Δ388–389) (enzyme, Plasmodium falciparum, UniProt Q8IL11 85-605, looked up)
chain: ASEVPQVVSLDPTSIPIEYNTPIHDIKVQVYDIKGGCNVEEGLTIFLVNNPGKENGPVKISSKVNDKNVSEFLKDENMEKFNVKLGTSKHFYMFNDNKNSVAVGYVGCGSVADLSEADMKRVVLSLVTMLHDNKLSKLTVVFEINVDKNLFRFFLETLFYEYMTDERFKSTDKNVNMEYIKHLGVYINNADTYKEEVEKARVYYFGTYYASQLIAAPSNYCNPVSLSNAAVELAQKLNLEYKILGVKELEELKMGAYLSVGKGSMYPNKFIHLTYKSKGDVKKKIALVGKGITFDSGGYNLKAGSMIDLMKFDMSGCAAVLGCAYCVGTLKPENVEIHFLSAVCENMVSKNSYRPGDIITASNGKTIEVGNTDAEGRLTLADALVYAEKLGVDYIVDIATLTGAMLYSLGTSYAGVFGNNEELINKILNSSKTSNEPVWWLPIINEYRATLNSKYADINNISSSVKASSIVASLFLKEFVQNTAWAHIDIAGVSWNFKARKPKGFGVRLLTEFVLNDAL
B2: Plasmodium falciparum M17 aminopeptidase (PfA-M17), wild type, truncated (amino acids 85-605) (enzyme, UniProt Q8IL11 85-605, looked up)
chain: ASEVPQVVSLDPTSIPIEYNTPIHDIKVQVYDIKGGCNVEEGLTIFLVNNPGKENGPVKISSKVNDKNVSEFLKDENMEKFNVKLGTSKHFYMFNDNKNSVAVGYVGCGSVADLSEADMKRVVLSLVTMLHDNKLSKLTVVFEINVDKNLFRFFLETLFYEYMTDERFKSTDKNVNMEYIKHLGVYINNADTYKEEVEKARVYYFGTYYASQLIAAPSNYCNPVSLSNAAVELAQKLNLEYKILGVKELEELKMGAYLSVGKGSMYPNKFIHLTYKSKGDVKKKIALVGKGITFDSGGYNLKAAPGSMIDLMKFDMSGCAAVLGCAYCVGTLKPENVEIHFLSAVCENMVSKNSYRPGDIITASNGKTIEVGNTDAEGRLTLADALVYAEKLGVDYIVDIATLTGAMLYSLGTSYAGVFGNNEELINKILNSSKTSNEPVWWLPIINEYRATLNSKYADINNISSSVKASSIVASLFLKEFVQNTAWAHIDIAGVSWNFKARKPKGFGVRLLTEFVLNDAL
B3: PfA-M17(A387P) (enzyme, Plasmodium falciparum, UniProt Q8IL11 85-605, looked up)
chain: B2 chain with A303P
B4: PfA-M17(Δ388–390) (enzyme, Plasmodium falciparum, UniProt Q8IL11 85-605, looked up)
chain: ASEVPQVVSLDPTSIPIEYNTPIHDIKVQVYDIKGGCNVEEGLTIFLVNNPGKENGPVKISSKVNDKNVSEFLKDENMEKFNVKLGTSKHFYMFNDNKNSVAVGYVGCGSVADLSEADMKRVVLSLVTMLHDNKLSKLTVVFEINVDKNLFRFFLETLFYEYMTDERFKSTDKNVNMEYIKHLGVYINNADTYKEEVEKARVYYFGTYYASQLIAAPSNYCNPVSLSNAAVELAQKLNLEYKILGVKELEELKMGAYLSVGKGSMYPNKFIHLTYKSKGDVKKKIALVGKGITFDSGGYNLKASMIDLMKFDMSGCAAVLGCAYCVGTLKPENVEIHFLSAVCENMVSKNSYRPGDIITASNGKTIEVGNTDAEGRLTLADALVYAEKLGVDYIVDIATLTGAMLYSLGTSYAGVFGNNEELINKILNSSKTSNEPVWWLPIINEYRATLNSKYADINNISSSVKASSIVASLFLKEFVQNTAWAHIDIAGVSWNFKARKPKGFGVRLLTEFVLNDAL

Biological target: the molecule itself
Test: SEC

| Protein | stoichiometry N |
| --- | --- |
| B1 | 6 |
| B2 | 6 |
| B3 | 6 |
| B4 | 6 |
